In publication PMC5779228 one finds stoichiometry N data, which are given here for one substance.

The term stoichiometry N denotes the number of molecules, sites or subunits per partner or assembly.

The target in this assay is His-tagged dimeric ϕO11 Dut (S. aureus phage ϕO11). Description: crystal structure; ϕO11 Dut (10 mg/ml) with 0.5 mM dUPNPP and 5 mM MgCl2; sitting drop at 21°C; 0.2 M magnesium chloride, 0.1 M Tris-HCl pH 8.5, 20% PEG 8000; 2.1 Å.

On to His-tagged dimeric ϕO11 Dut (enzyme), for which the stoichiometry N was 2.
